Several values for one entry are separate records, joined by “and”; a condition that tells them apart may be missing. Equal values may be shown once.
Legend:
Test in all cases: cryo-EM structure
[1] = molecular target: CUS-3 coat protein (CP, major capsid protein; gp5 by the name of the P22 homologue) (bacteriophage CUS-3)
[2] = molecular target: CUS-3 tailspike protein (gp9 by the name of the P22 homologue) (bacteriophage CUS-3)
[3] = molecular target: CUS-3 tail needle protein (gp26 by the name of the P22 homologue) (bacteriophage CUS-3)
[4] = molecular target: CUS-3 portal protein (gp1 by the name of the P22 homologue) (bacteriophage CUS-3)

Substance: CUS-3 coat protein (CP, major capsid protein; gp5 by the name of the P22 homologue) (natural protein)
- stoichiometry N [1]: 5 and 6

Substance: CUS-3 tailspike protein (gp9 by the name of the P22 homologue) (natural protein)
- stoichiometry N [2]: 3

Substance: CUS-3 tail needle protein (gp26 by the name of the P22 homologue) (natural protein)
- stoichiometry N [3]: 3

Substance: CUS-3 portal protein (gp1 by the name of the P22 homologue) (natural protein)
- stoichiometry N [4]: 12
